Test results from US10385103B2, “Cell-permeable (ICP)-SOCS3 recombinant protein and uses thereof” (CELLIVERY THERAPEUTICS, INC., priority 2014, dated 2019).
Entries after “also recorded” stand apart in the source; their conditions may differ.

Experiments:
STAT3 = experiment: Inhibition of IFN-γ-induced STAT phosphorylation in PANC-1 cells (western blot), STAT3; type: cell-based
Procedure: (§1) PANC-1 Cells (KCLB, Seoul, South Korea) were treated with 10 ng/ml IFN-γ (R&D systems, Abingdon, UK) for 15 min and treated with either DMEM (vehicle) or 10 μM aMTD/SD-fused SOCS3 recombinant proteins for 2 hrs. The cells were lysed in RIPA lysis buffer (Biosesang, Seongnam, Korea) containing proteinase inhibitor cocktail (Roche, Indianapolis, Ind., USA), incubated for 15 min at 4° C., and centrifuged at 13,000 rpm for 10 min at 4° C. Equal amounts of lysates were separated on 10% SDS-PAGE gels and transferred to a nitrocellulose membrane. The membranes were blocked using 5% skim milk in TBST and for western blot analysis incubated with the following antibodies: anti-phospho-STAT1 (Cell Signaling Technology, USA) and anti-phospho-STAT3 (Cell Signaling Technology, USA), then HRP conjugated anti-rabbit secondary antibody (Santacruz).
as §1, with “(vehicle) or 1, 5, 10 μM” for “(vehicle) or 10 μM”, “following antibodies: anti-phospho-STAT3 (Cell” for “following antibodies: anti-phospho-STAT1 (Cell Signaling Technology, USA) and anti-phospho-STAT3 (Cell”

Chang cell = experiment: Cell viability of non-cancer cells, CellTiter-Glo; type: cell-based, human; conditions: 10 μM over 4 days
Procedure: Cells originated from human hepatocellular carcinoma cell (Hep3B, HepG2, Huh-7, SK-Hep1), human normal cells (HEK293, HaCaT, Chang liver cell) and mouse fibroblast (NIH3T3) were purchased from ATCC (Manassas, Va., USA) and KCLB (Seoul, Korea). All the cells were maintained as recommended by the supplier. These cells (3×10^3/well) were seeded in 96 well plates. The next day, cells were treated with DMEM (vehicle) or 10 μM recombinant SOCS3 proteins for 96 hrs in the presence of serum (2%). Proteins were replaced daily. Cell growth and survival were evaluated with the CellTiter-Glo Cell Viability Assay (Promega, Madison, Wis.). Measurements using a Luminometer (Turner Designs, Sunnyvale, Calif.) were conducted following the manufacturer's protocol.

PANC-1 cells = experiment: Apoptotic cell analysis by TUNEL assay in pancreatic carcinoma cells; type: cell-based; conditions: PANC-1, 10 uM
Procedure: PANC-1 cells (pancreatic carcinoma cell line) were seeded in a 16-well chamber slide at a density of 5×10^3 cells/well, and then treated with 10 uM of aMTD/SD-fused SOCS3 for 24 hours. Apoptotic cells were analyzed using terminal dUTP nick-end labeling (TUNEL) assay with In Situ Cell Death Detection kit TMR red (Roche, 4056 Basel, Switzerland). Cells were treated with either 10 μM SOCS3 recombinant protein or buffer alone for 16 hrs with 2% fetal bovine serum (Hyclone, Logan, Utah, USA). Treated cells were washed with cold PBS two times, fixed in 4% paraformaldehyde (PFA, Junsei, Tokyo, Japan) for 1 hr at room temperature, and incubated in 0.1% Triton X-100 for 2 min on the ice. Cells were washed with cold PBS twice, and treated TUNEL reaction mixture for 1 hr at 37° C. in dark, washed cold PBS three times and observed by fluorescence microscopy (Nikon, Tokyo, Japan).

Huh-7 cells = experiment: Wound cell migration assay; type: cell-based, human; conditions: 10 μM 2 hrs, additional 24-72 hrs
Procedure: (§2) Cells were seeded into 12-well plates, grown to 90% confluence, and incubated with 10 μM Non-CP-SOCS3 (HS3B), iCP-SOCS3 (HM165S3B) in serum-free medium for 2 hrs prior to changing the growth medium (recommended medium by the supplier). The cells were washed twice with PBS, and the monolayer at the center of the well was “wounded” by scraping with a pipette tip. Cells were cultured for an additional 24-72 hrs and cell migration was observed by phase contrast microscopy (Nikon, ECLIPSE Ts2). The migration was quantified by counting the number of cells that migrated from the wound edge into the clear area.

HepG2 cells = experiment: Wound cell migration assay; type: cell-based, human; conditions: 10 μM 2 hrs, additional 24-72 hrs
Procedure: as §2

Chang liver cells = experiment: Wound cell migration assay; type: cell-based, human; conditions: 10 μM 2 hrs, additional 24-72 hrs
Procedure: as §2

RAW 264.7 cells = experiment: Cell-to-cell protein transfer (flow cytometry); type: cell-based
Procedure: For this, RAW 264.7 cells were treated with 5 μM of FITC-labeled HM165S3B, HTS3B for 2 hour and washed with PBS two times. Thereafter, they were seeded on PANC-1 cell, incubated for 2 hours and treated with 20 ng/ml of IFN-γ for 15 minutes, followed by Western blotting in the same manner as in Example 8-1. And Cell-to-cell protein transfer was assessed by flow cytometry.
For this, RAW 264.7 cells were treated with 10 uM of FITC-labeled iCP-SOCS3 (HM165S3B) protein for 1 hour. Thereafter, these cells were co-cultured with PerCP-Cy5.5-CD 14-stained RAW 264.7 cells for 2 hours. Cell-to-cell protein transfer was assessed by flow cytometry, scoring for CD14/FITC double-positive cells.

NIH3T3 cells = experiment: Intracellular delivery and localization of FITC-labeled SOCS3 recombinant proteins (confocal microscopy); type: cell-based, mouse; conditions: 10 μM FITC-labeled SOCS3 protein, 1 hour, 37° C.
Procedure: To examine cell-permeability of SOCS3 recombinant protein, SOCS3 recombinant proteins were conjugated to 5/6-fluorescein isothiocyanate (FITC). RAW 264.7 (KCLB, Seoul, South Korea) (FIG. 20) or NIH3T3 cells (KCLB, Seoul, South Korea) (FIG. 21) were treated with 10 μM FITC-labeled SOCS3 recombinant proteins and cultivated for 1 hr at 37° C.
After cultivation, the cells were washed three times with ice-cold PBS (Phosphate-buffered saline, Hyclone, USA) and treated with proteinase K (10 μg/mL, SIGMA, USA) to remove surface-bound proteins, and internalized proteins were measured by flow cytometry (FlowJo cytometric analysis software, Guava, Millipore, Darmstadt, Germany). Untreated cells (gray) and equimolar concentration of unconjugated FITC (FITC only, green)-treated cells were served as control (FIG. 20). Each of NIH3T3 cells was incubated for 1 hour at 37° C. with 10 μM FITC-labeled SOCS3 protein. For nuclear staining, a mixture of […] Mounting Medium (Vector laboratories, Burlingame, Calif.) and DAPI (4′,6-diamidino-2-phenylindole) was added to NIH3T3 cells, and visualized using a confocal laser microscope (LSM700, Zeiss, Germany) (FIG. 21).

B1: HM165S3B: His-tagged recombinant protein of aMTD165, human SOCS3 and solubilization domain B; prototype improved cell-permeable SOCS3 (protein)
chain: MGSSHHHHHHSSGLVPRGSHMALAVPVALAIVPVTHSKFPAAGMETSRPLDTSLRLKTFSSKSEYQLVVNAVRKLQESGFYWSAVTGGEANLLLSAEPAGTFLIRDSSDQRHFFTLSVKTQSGTKNLRIQCEGGSFSLQSDPRSTQPVPRFDCVLKLVHHYMETPPPGAPSFPSPPTEPSSEVPEQPSAQPLPGSPPRRAYYIYSGGEKIPLVLSRPLSSNVATLQHLCRKTVNGHLDSYEKVTQLPGPIREFLDQYDAPLGSMAEQSDKDVKYYTLEEIQKHKDSKSTWVILHHKVYDLTKFLEEHPGGEEVLGEQAGGDATENFEDVGHSTDARELSKTYIIGELHPDDRSKIAKPSETL
modifications: Amino acid sequence of HM165S3B
Q: What does the source list for B1?
A: IFN-γ-induced phosphorylation of STAT3 (STAT3; PANC-1, 10 ng/ml IFN-γ 15 min, 10 μM protein 2 hrs): suppressed IFN-γ-induced phosphorylation of STAT1 and STAT3; IFN-γ-induced phosphorylation of STAT3 (STAT3; PANC-1, 10 ng/ml IFN-γ 15 min, 1, 5, 10 μM protein 2 hrs): suppressed IFN-γ-induced phosphorylation of STAT3 in dose dependent manner; cell viability of non-cancer cells (Chang cell) (Chang cell): not overly toxic to normal cells; induction of cell death (TUNEL) (PANC-1 cells): induced death of the largest number of cancer cells; wound cell migration, Huh-7 (Huh-7 cells): suppressed the repopulation of wounded monolayer; wound cell migration, HepG2 (HepG2 cells): suppressed the repopulation of wounded monolayer; wound cell migration, normal Chang liver cells (Chang liver cells): had no effect on the cell migration; cell-to-cell protein transfer (CD14/FITC double-positive cells) (RAW 264.7 cells; 10 uM FITC-labeled protein 1 hour, co-culture with CD14-stained RAW 264.7 cells 2 hours): Efficient cell-to-cell transfer; cell-to-cell protein transfer (RAW 264.7 cells; RAW 264.7 treated with 5 μM FITC-labeled protein 2 hour, seeded on PANC-1 cell 2 hours): efficient cell-to-cell transfer; intracellular delivery and localization (NIH3T3 cells): localized to various extents in cytoplasm; also recorded: displayed more uniform cellular distribution
